According to the supplement of paper PMC10567573:
± gives the standard deviation.

Assay: protein stability index of a GFP-peptide fusion (GPS, HEK-293T) (PSI 1-6); higher = more stable
[1] = treatment: DMSO, c terminus: a fixed tail appended
[2] = treatment: MLN4924 1 uM, 8 h, c terminus: a fixed tail appended
[3] = treatment: DMSO, c terminus: native
[4] = treatment: MLN4924 1 uM, 8 h, c terminus: native
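Further: 24-mer peptide tiles fused after GFP, lentivirally expressed, FACS-sorted into six equal bins by GFP/DsRed ratio, decoded by Illumina sequencing, PSI is the read-weighted mean bin number.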

Row | Sequence | protein stability index [1] | protein stability index [2] | protein stability index [3] | protein stability index [4]
1 | YLKKNHEEEMNALRGQVGGEINVE [KRT17] | 4.39 ± 0.23 | 4.75 ± 0.12 |  | 
2 | EDLEDLGAVAPPVSGDLTKEDIDL [NFE2L1] | 5.71 ± 0.4 | 5.3 ± 0.76 |  | 
3 | ANVTLSLDTVEEVLSVSKILHIPQ [KLHL14] | 2.31 ± 0.43 | 2.21 ± 0.38 |  | 
4 | PIPVVFVLRHFHLLSDGSNTLSVS [SLC6A17] | 2.83 ± 0.81 | 2.84 ± 0.47 |  | 
5 | FRVAKKRAPKVLGTTLVVGLLAGV [GDAP1] | 2.47 ± 0.86 | 1.82 ± 0.61 |  | 
6 | ERFIQYLASRNTLFNLSNFLDKSG [SNAP91] | 2.4 ± 0.26 | 2.53 ± 0.61 |  | 
7 | HGPDLYPKFKKWCDDYFFIAHRGE [CPOX] | 2 ± 0.15 | 2.1 ± 0.27 |  | 
8 | IEDLEVTCTWKLPTLAKFSPYLGQ [PRAME] | 2.62 ± 0.32 | 2 ± 0.58 |  | 
9 | DWYQRQRPSEIKDYSPYFKTIEDL [KRT16] | 2.74 ± 0.28 | 2.9 ± 0.32 |  | 
10 | EESEEERGLEPGKGRHHRGRGGEP [CHGB] | 5.59 ± 0.17 | 5.51 ± 0.25 |  | 
11 | KPLFCGNSEADQLGKIFDLIGLPP [CDK4] | 2.62 ± 0.15 | 2.71 ± 0.28 |  | 
12 | SGNFERCIRLWKYALDMQQSNLEP [FEM1A] | 2.12 ± 0.12 | 2.38 ± 0.48 |  | 
13 | VSSEDSFVCQCFEGYILREDGKTC [MATN2] | 3.04 ± 0.26 | 3.08 ± 0.57 |  | 
14 | RSGRLILWEAPPLGAGGGSLLPGA [NEK8] | 2.84 ± 0.43 | 3.11 ± 0.3 |  | 
15 | CSKSYSRRSFLIEHQRSHTGERPH [ZSCAN9] | 3.42 ± 0.073 | 3.52 ± 0.36 |  | 
16 | KLPSSGSGKRLSGVSSVDSAFSSR [RIPK4] | 3.9 ± 0.095 | 3.99 ± 0.4 |  | 
17 | MVESRYALLIVDSATALYRTDYSG [RAD51] | 3 ± 0.79 | 2.86 ± 0.71 |  | 
18 | KYTPSNKHGFSWAVPKFMKRIKVP [DLC1] | 2.49 ± 0.36 | 2.6 ± 0.44 |  | 
19 | AALNMSLGMVTPVNDLRGSDSIAY [ADD1] | 2.48 ± 0.37 | 2.62 ± 0.22 |  | 
20 | QEFSDVERAIETLIKNFHQYSVEG [S100A14] | 2.33 ± 0.33 | 2.59 ± 0.43 |  | 
21 | RRLQEVLGVQTGGPGGRRAGEPGH [DYRK1B] | 4.12 ± 0.3 | 4.18 ± 0.26 |  | 
22 | KLSARDHQKLEREARICRLLKHPN [CAMK2D] | 3.38 ± 0.31 | 3.8 ± 0.39 |  | 
23 | APHTPPLPRRPRKGSSELGFPRVA [RNF208] | 4.17 ± 0.21 | 4.06 ± 0.13 |  | 

Row | Sequence | protein stability index [1] | protein stability index [2] | protein stability index [3] | protein stability index [4]
24 | YPHTRIQSLVSILRTTVHHAFPVV [CLCN6] | 2.42 ± 0.57 | 2.14 ± 0.15 |  | 
25 | YVATEAILIALVGATPSYHWDLAE [SLC22A15] | 3.01 ± 0.39 | 3.27 ± 0.31 |  | 
26 | LVEAVLSGEVLNGAAVVRPPGHHA [HDAC6] | 2.27 ± 0.2 | 2.27 ± 0.34 |  | 
27 | FHEDGPQGPGGDEDDDEEDTDKLL [PSD2] | 5.55 ± 0.32 | 5.59 ± 0.2 |  | 
28 | AGLDWQSLGQMKELGVIFYNCSCL [PLD5] | 3.12 ± 0.15 | 3.26 ± 0.43 |  | 
29 | ERLAHSRAAAAAAVAAATAAVEGS [KCNA4] | 4.38 ± 0.2 | 4.25 ± 0.29 |  | 
30 | QVVGQVNVEMDATPGIDLTRVLAE [KRT13] | 4.07 ± 0.32 | 4.15 ± 0.2 |  | 
31 | EGYCQAQAPIAAVLLMHMPAEQAF [TBC1D10A] | 2.33 ± 0.49 | 2.03 ± 0.27 |  | 
32 | HEMVAHRHRQEVLCKEMVPLAEQT [ZSCAN9] | 4.42 ± 0.2 | 4.41 ± 0.19 |  | 
33 | KSITSAMNELQHDLDVVSDALAKV [TPH1] | 4.4 ± 0.18 | 4.47 ± 0.12 |  | 
34 | VTNHNIRLFEDVRSWMFRRGPLNS [TRIM43] | 2.56 ± 0.45 | 2.49 ± 0.18 |  | 
35 | SGDCDQRFRFPSPILKVQYHPRDQ [RBBP5] | 3.8 ± 0.19 | 3.74 ± 0.27 |  | 
36 | NKPREHIIDCGDIVWSLAFGSSVP [WSB1] | 2.17 ± 0.38 | 2.07 ± 0.2 |  | 
37 | DAILYYYQSGGRIRRPVNVPIDIF [KCNA3] | 2.2 ± 0.61 | 2.58 ± 0.76 |  | 
38 | PDTGDNARLTYSIVGNQVQGAPAS [PCDHGC5] | 4.42 ± 0.37 | 4.52 ± 0.52 |  | 
39 | SARIVQVVTAEAVAVLKGEQEKEA [MAP2] | 4.82 ± 0.11 | 4.81 ± 0.21 |  | 
40 | VPWESDIWDINNQICTVKDIKAEP [ATF6] | 4.02 ± 0.24 | 3.9 ± 0.25 |  | 
41 | RQSSVTESTLYPNPYHQPYISRKY [TPRG1] | 3.44 ± 0.31 | 3.67 ± 0.23 |  | 
42 | PGEDENPEKASELSQVELQAAPGA [TRIM55] | 5.56 ± 0.27 | 5.72 ± 0.2 |  | 
43 | GPMMKLKRHFVAQKYKKQIDHMYH [ACSBG2] | 2.1 ± 0.14 | 2.42 ± 0.37 |  | 
44 | ADWTQGLPWRFEELLTCSHWPSFF [TEX19] | 2.54 ± 0.67 | 2.6 ± 0.58 |  | 
45 | IETLIRDMLLSGSSFNWPYMAIQ [NR2F2] |  |  | 3.02 ± 1.2 | 2.64 ± 0.41
46 | LVHHRAAHSNEILIFSVQPKSLVR [KLHDC2] | 2.45 ± 0.31 | 2.21 ± 0.24 |  | 

Row | Sequence | protein stability index [1] | protein stability index [2] | protein stability index [3] | protein stability index [4]
47 | AGPQSQVLCGVVMDRSLVQDAPLS [ADD1] | 3.62 ± 0.2 | 3.59 ± 0.11 |  | 
48 | ESLREELICLKKNHEEEVNTLRSQ [KRT34] | 4.91 ± 0.23 | 5.04 ± 0.23 |  | 
49 | ETWNPFKLQYQLRNVRERIAKNLV [GOLPH3L] | 2.37 ± 0.34 | 2.37 ± 0.24 |  | 
50 | QLKRQKRDYIHSLKLLNVLEEYIT [FAM9B] | 2.28 ± 0.55 | 2.56 ± 0.42 |  | 
51 | VYPKEFHLNRGNHEDHMVNLRYGF [PPEF2] | 2.69 ± 0.29 | 2.71 ± 0.36 |  | 
52 | FEMLSGFPPFFDDNPFGIYQKILA [PRKX] | 2.47 ± 0.45 | 2.29 ± 0.3 |  | 
53 | LFYKPGIVLLLALAKYLKMNNFL [GULP1] |  |  | 2.87 ± 0.92 | 2.87 ± 0.91
54 | RSSHSSDSGGSDVDLDPTDGKLFP [ELF3] | 5.34 ± 0.17 | 5.26 ± 0.32 |  | 
55 | TFDIDPMVVTDCIQVDPPERPPPP [MCOLN1] | 4.69 ± 0.29 | 4.89 ± 0.35 |  | 
56 | DDPSLRKTHSSPALSQGHVTGSKT [PSD2] | 5.5 ± 0.32 | 5.5 ± 0.33 |  | 
57 | ERSARYQYFVVDPMAEYNMPQYIL [PTPRD] | 2.01 ± 0.28 | 2.74 ± 0.99 |  | 
58 | RKHALERFEQEAVAVDSNLRVREL [CCDC89] | 4.21 ± 0.12 | 4.47 ± 0.21 |  | 
59 | TVAGSLNDFSYLHTNCFELSIYVG [CPXM2] | 2.79 ± 0.78 | 2.55 ± 0.7 |  | 
60 | GYSIKVFDFERSGLQHAPEPDAAD [SMAD6] | 4.26 ± 0.37 | 4 ± 0.17 |  | 
61 | IKSDEECRDLVDEAKNYLLLPQER [KLHL20] | 4.68 ± 0.14 | 4.64 ± 0.13 |  | 
62 | LHKIYLCQSGYFSSMFSGSWKESS [GMCL1] | 2.26 ± 0.82 | 2.18 ± 0.37 |  | 
63 | VHASGWNKILVPLVLLRQMLLELT [BCL2L13] | 2.2 ± 0.3 | 2.3 ± 0.24 |  | 
64 | ASQFLASASSSTTCCESTQRSVSD [IRX6] | 5.09 ± 0.22 | 5.09 ± 0.22 |  | 
65 | VKSKAKKTVDKHSDEYKIRRERNN [CEBPB] | 4.78 ± 0.39 | 4.79 ± 0.2 |  | 
66 | EAGGRFVAFSGEGQSLRKKGRKP [UFD1] |  |  | 2.75 ± 0.78 | 3.29 ± 0.79
67 | AEELALEQAKKESEDQKRLKQAKE [CHCHD3] | 5.72 ± 0.22 | 5.41 ± 0.29 |  | 
68 | IEELCQKREELCRQIQEEEDEKQR [SSNA1] | 5.43 ± 0.1 | 5.52 ± 0.12 |  | 
69 | SSTLVRPIRSRRALPPLRTRSKSD [FAM189A2] | 4.65 ± 0.31 | 4.6 ± 0.084 |  | 

Row | Sequence | protein stability index [1] | protein stability index [2] | protein stability index [3] | protein stability index [4]
70 | ERHSDLPPLNPTSWWADLRALARN [SPNS1] | 3.34 ± 0.5 | 3.34 ± 0.38 |  | 
71 | IFEETLNILIYETPRGPDPALLEA [KCTD13] | 2.47 ± 0.51 | 2.63 ± 0.28 |  | 
72 | IDKVRFLEQQNQVLETKWELLQQL [KRT71] | 2.74 ± 0.1 | 2.73 ± 0.27 |  | 
73 | DLEAVVPQNGSETGWARKGLGNTW [ATP23] | 3.42 ± 0.2 | 3.38 ± 0.44 |  | 
74 | LELGSYIKDLSVVHSDLSSIVILD [CTDNEP1] | 2.4 ± 0.13 | 2.48 ± 0.62 |  | 
75 | TTKGTSEMSEKRGPTSSNPRKRHR [MLH1] | 5.14 ± 0.41 | 5.04 ± 0.079 |  | 
76 | TKGEEISVYVKLAGEREDLWAGSK [MIA2] | 3.36 ± 0.6 | 3.83 ± 0.19 |  | 
77 | PGPDTGPDSELSPCIPPGFRNLVA [SPAG8] | 3.79 ± 0.27 | 3.94 ± 0.17 |  | 
78 | EMMRFIYTGRAPNLDKMADNLLAA [SPOPL] | 2.42 ± 0.29 | 2.01 ± 0.19 |  | 
79 | LADDHLIEVNGENVEDASHEEVVE [PDZK1] | 5.65 ± 0.1 | 5.54 ± 0.24 |  | 
80 | GPDHRLRLWRLFQTLDVNRDGGLC [SLC25A25] | 2.29 ± 0.11 | 2.23 ± 0.22 |  | 
81 | PKRMPSGRGGRDRFTAESYTVLGD [FSD1] | 4.11 ± 0.33 | 4.3 ± 0.22 |  | 
82 | RPPGHHAQHSLMDGYCMFNHVAVA [HDAC6] | 2.4 ± 0.43 | 2.27 ± 0.23 |  | 
83 | TTNPHTSASHRPCVNGDVDKPSEP [SMG5] | 5.15 ± 0.23 | 5.12 ± 0.14 |  | 
84 | RLIKELAKYEYMEEQVILTEKDLL [SAT1] | 2.34 ± 0.34 | 2.18 ± 0.25 |  | 
85 | CSTNKPEGYRVSQALRENTYPFLA [FAF2] | 2.54 ± 0.2 | 2.53 ± 0.4 |  | 
86 | RRVLQGLEIELQSQLSMKASLENS [KRT16] | 2.8 ± 0.21 | 2.89 ± 0.4 |  | 
87 | DQVMEFSWSALWNITDETPDNCEM [ZER1] | 4.12 ± 0.27 | 4.04 ± 0.5 |  | 
88 | NCQSVAQMNLLQKYSLLKLTALLE [DLC1] | 2.25 ± 0.36 | 2.44 ± 0.11 |  | 
89 | RMEKGEPYMSIQPAEDPDDYDDGF [SMARCE1] | 5.61 ± 0.076 | 5.54 ± 0.27 |  | 
